In publication PMC4072508, “Genome-Wide Prediction and Validation of Peptides That Bind Human Prosurvival Bcl-2 Proteins” (PLoS Computational Biology, 2014):

T1: Mcl-1, Q07820
T1 chain: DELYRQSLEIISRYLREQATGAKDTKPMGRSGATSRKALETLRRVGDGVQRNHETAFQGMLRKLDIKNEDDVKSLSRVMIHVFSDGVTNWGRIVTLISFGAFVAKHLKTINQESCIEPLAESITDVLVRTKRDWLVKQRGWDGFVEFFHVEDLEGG


How the values were obtained:
Bcl-xL, Q07817 = test: peptide SPOT array, c-Myc-tagged receptor at 1 uM or 100 nM, anti-c-Myc-Cy3
Mcl-1, Q07820 = target: T1, Mcl-1, Q07820; test: as above

Bcl-xL, Q07817, sequence (Q07817 1-209): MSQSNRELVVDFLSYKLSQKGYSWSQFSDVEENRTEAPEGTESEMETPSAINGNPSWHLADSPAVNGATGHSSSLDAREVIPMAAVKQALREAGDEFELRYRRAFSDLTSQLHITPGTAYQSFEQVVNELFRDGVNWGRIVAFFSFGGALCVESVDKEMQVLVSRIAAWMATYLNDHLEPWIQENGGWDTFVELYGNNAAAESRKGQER

Row | Binder | SPOT signal as a fraction of Bim BH3's signal on the same receptor and array (Bcl-xL, Q07817) | SPOT signal as a fraction of Bim BH3's signal on the same receptor and array (Mcl-1, Q07820)
1 | VLSRIEAGRSDKSVADEFGISKSTFY [TIGD7_3eA] | 0.02 | 0.02
2 | KKCQDMIMTELTNALDDVVVFYNDKA [ITPR3] | 0.02 | 0.02
3 | DVGTGAGLLEIKKIGDEYFTFITDCK [CCT3] | 0.01 | 0.01
4 | AICIEEIGVWMKMYLDAFLNDSYLKY | 0.02 | 0.03
5 | SALETQVAAAVQALADDYLAQLSLEP [TRO] | 0.01 | 0.01
6 | RDPQGWVAGNDSARGDGAAGFTLPGF [MST1R] | 0.01 | 0.02
7 | CILNSFYGYVMRKGARWYSMEMAGIV [POLE] | 0.18 | 0.12
8 | NKRHRPIGIGDQGLADAFILMRYPFE | 0.02 | 0.02
9 | SKFVILSAHKLVFILDTLSRQAKAAD [BCAR1] | 0.07 | 0.02
10 | SQGDKRVAFFDRKGADCLSKWVGESE | 0.02 | 0.02
11 | RCELQICGLAMADAGEYLCVCGQERT [OBSCN] | 0.01 | 0.01
12 | VDFYQPTCIVLQCGLDSLGCDRLGCF [HDAC3] | 0.01 | 0.01
13 | SQGDKRVAFFMRKGADCLSKWVGESE | 0.13 | 0.06
14 | QLSKPGAALYDQSIGEGFKEAVQYVL [SOS1] | 0.02 | 0.02
15 | RIEMWISILELNELLEYAAVELHQAK | 0.02 | 0.03
16 | AICIEEIGVWDKMYSDAFLNDSYLKY | 0.05 | 0.03
17 | SPYVFNGGTIDAIAGEDFAIVASDTR [PSMB1] | 0.01 | 0.01
18 | QQMHHNAATAMAQRLDMLRGLSPRES [NCOR2] | 0.13 | 0.08
19 | DLSAVTLSRELQAMLEQLAENYHNTW [RYR1] | 0.02 | 0.02
20 | NKSLTTLGLVISSLLDQAAGKGKSKF | 0.26 | 0.18
21 | TPSRSALSSELSLVGDTTGDTLEKFV [CREBBP] | 0.02 | 0.01
22 | DSLAKFAGRKDKDCGEDLLVEISEVL [PCM1] | 0.01 | 0.01
23 | KNIAGALAFWMANASELLNFIKQDRD [MLLT4] | 0.03 | 0.03
24 | IGFFIAFGIAMGKMLDQAKLMVDFFN | 0.03 | 0.03
25 | RLAHEHHCLRIKILLDCYYCVSGLPE [ADCY8] | 0.02 | 0.03
26 | SHALICISHWILGIGDRHLNNFMVAM [PRKDC] | 0.02 | 0.02
27 | IQQDLGCGASLGVISDNLLVTGGQGC [SCAP] | 0.02 | 0.01

Now from value to binder:

Row | SPOT signal as a fraction of Bim BH3's signal on the same receptor and array (Bcl-xL, Q07817) | SPOT signal as a fraction of Bim BH3's signal on the same receptor and array (Mcl-1, Q07820) | Binder
28 | 0.02 | 0.04 | CDLLGAKGKDDLYIGDHIFGDILKSK [NT5C2]
29 | 0.05 | 0.04 | LRVSTKIGSCMKSVGEVMGIGRSFEE [CAD]
30 | 0.02 | 0.01 | IGFFIAFGIADGKMGDQAKLMVDFFN
31 | 0.01 | 0.01 | PSLSKELTSSLAGVGDVSFDSDSQFP [CRTC1]
32 | 0.02 | 0.02 | SKFVILSAHKDVFIGDTLTRQVTAQD [NEDD9]
33 | 0.02 | 0.01 | ERAISCMGQIICNLLDNLGSDLPNTL [CAND1]
34 | 0.81 | 0.94 | GLTWDPVGKYIASQADDRSLKVWRTL [HIRA]
35 | 0.01 | 0.01 | LSPGRSVTAGIIIVLDEILKGHTQDT [FLAD1]
36 | 0.02 | 0.01 | CALIAGATLHVAWLLDSQVILVQQGQ [PPM1F]
37 | 0.25 | 0.12 | GSGLHGWAFTLKQFLEMYVAKFAAKG [EEF2]
38 | 0.02 | 0.02 | HGTSSRIGSSMKSVLEVMAIGRTFEE [CPS1]
39 | 0.04 | 0.05 | NKRHRPIGIGVQGLLDAFILMRYPFE
40 | 0.29 | 0.19 | NKSLTTLGLVDSSLADQAAGKGKSKF
41 | 0.02 | 0.02 | AFTEREASEIMKSIGEAIQYLHSINI [MAPKAPK2]
